According to patent publication US20230051580A1 (HUDSON INSTITUTE OF MEDICAL RESEARCH, published 2023):

B1: anti-CXCL10 monoclonal antibody mAb-RA2 (antibody, V domains shown)
VH: QVQLQQPGAELVRPGASVKLSCKASGYTFTSHWMIWVKQRPGQGLEWIGMIDPSDSATHYNQMFKDKATLTVDKSSSTAYMQLSSLTSEDSAVYYCANTRHDESWGQGTLVTVSA
VL: DIQMTQSPSSLSASLGGRVTITCKASQDIHKYIAWYQHKPGKGPRLLIYDTSTLQPGIPSRFTGSGSGRDYSFSISNLEPEDIATYYCLQYDDLYTFGGGTKLEIKR
notes: It was immobilised on the chip in SPR, and used biotinylated as the detection antibody in the sandwich ELISA (ART); also called anti-CXCL10 antibody RA2
B2: anti-CXCL10 monoclonal antibody mAb-RG2 (antibody, V domains shown)
VH: QIQLVQSGPDLKKPGETVKISCKASGYTFTNYGMNWVKQAPGKGLKWMAWINTNSGEPTYAEEFKGRFALSLDTSASTAYLQINNLKNEDTATYFCARYTGEFFYNGSSYVSYWYFDVWGAGATVTVSS
VL: DIVLTQSPASLAVSLGQRATISCRASKSVSSSGYSYMHWYQQKPGQPPKLLIYLASNLESGVPARFSGSGSGSDFTLNIHPVEEEDAATYYCQHSRDLPWTFGGGTKLEIKR
notes: It was immobilised on the chip in SPR, and used biotinylated as the detection antibody in the sandwich ELISA (ART); also called anti-CXCL10 antibody RG2

Assays:
Assay in all cases: SPR (ProteOn XPR36), antibody immobilised, antigen applied
[1] = molecular target: T1, short peptide comprising the truncated N-terminus of human CXCL10 (NH2-LSRTVRCTCISISNQPVNPRSLE-COOH) (human)
T1 construct: Synthesised by Mimotopes; also called VP-truncated N-term; N-terminally truncated form
T1 peptide: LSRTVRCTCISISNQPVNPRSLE
Experimental: (§1) Two monoclonal antibodies; namely mAb-RA2 specific for full length, N-terminally intact CXCL10, and mAb-RG2 specific for both full length and truncated CXCL10, were analysed by Surface Plasmon Resonance (SPR) for binding affinity against both forms of CXCL10. Experiments were performed using a ProteOn XPR36 SPRi biosensor (BioRad), equipped with a GLC chip. The chip was conditioned with 0.5% SDS, 50 mM NaOH and 100 mM HCl, and then the lanes were activated using equal parts 1-Ethyl-3-(3-dimethylaminopropyl) carbodiimide (EDAC) and N-Hydroxysuccinimide (NETS). The antibodies were immobilised in separate lanes at a concentration of 50 μg/mL in sodium acetate buffer (pH4.5), then each lane deactivated using ethanolamine. Antigens were applied to each lane, and binding was recorded as RU. All channels were regenerated using 0.85% […] between applications of antigen. Interspot and control RU were subtracted to give specific binding.
(§2) The inventors developed a monoclonal antibody that could differentiate between the N-terminally intact, chemotactically active form of CXCL10 and all other variants. Using full-length CXCL10 protein as the antigen, hybridoma clones were isolated and screened for reactivity against (i) full-length CXCL10 protein; and (ii) short synthetic peptides, representing either the intact or truncated N-terminus of CXCL10. Antibodies secreted by clone mAb-RA2 recognized both full-length and N-terminally intact CXCL10, but not the N-terminally truncated form (Table 4). Antibodies secreted by clone mAb-RG2 reacted with all proteoforms of CXCL10 tested. […] The open reading frames encoding the variable regions of both antibodies was sequenced.

[2] = molecular target: T2, short peptide comprising the intact N-terminus of human CXCL10 (NH2-VPLSRTVRCTCISISNQPVNPRSLE-COOH) (human)
T2 construct: Synthesised by Mimotopes; also called N-terminally intact CXCL10 peptide
T2 peptide: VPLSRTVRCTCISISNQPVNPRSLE
Experimental: as §1, §2

[3] = molecular target: T3, recombinant full-length (mature) human CXCL10 (human, UniProt P02778 22-98)
T3 construct: Recombinant protein from Genscript, used for immunisation and as the assay standard; also called full-length CXCL10; IP-10
T3 sequence: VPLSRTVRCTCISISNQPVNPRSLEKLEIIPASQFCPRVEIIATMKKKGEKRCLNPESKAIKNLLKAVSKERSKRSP
Experimental: as §1, §2

| Binder | binding result [1] | Kd [2] [pM] | Kd [3] [pM] | Kd [1] [pM] |
| --- | --- | --- | --- | --- |
| B1 | no binding | 736 | 490 | – |
| B2 | – | 3540 | 3.89 | 3000 |
